The assay concerns the target anti-HA1H TCR expressed on SupT1 cells. Put plainly: cell-based or functional assay.

“MHC I CAR with β2m-41BBz: HLA-A02 / β2m-41BBz chimeric construct loaded with recombinant HA1H peptide, on transduced PBMC CAR-T cells (from UniProt P61769 21-119; P20963 31-51; Q07011 214-255; P20963 52-163) (peptide-MHC)” yielded an EC50 for HA1H peptide (pulsing concentration) in killing of SupT1 anti-HA1H TCR target cells, 48 h co-culture, 2:1 effector to target, flow cytometry of 0.1 µM.

Substance “MHC I CAR with β2m-CD3z: HLA-A02 / β2m-CD3z chimeric construct loaded with recombinant HA1H peptide, on transduced PBMC CAR-T cells (from UniProt P61769 21-119; P20963 31-51; P20963 52-163) (peptide-MHC)” displayed an EC50 for HA1H peptide (pulsing concentration) in killing of SupT1 anti-HA1H TCR target cells, 48 h co-culture, 2:1 effector to target, flow cytometry of 0.5 µM.

These data come from US20200255494A1.
